Results on 30 sequences are retold here after the nanobody polyreactivity screen of Harvey et al. (2022).

The series can be described thus: yeast display, Sf9 membrane polyspecificity reagent, FACS + sequencing; frameworks hold sequencing errors. The essentials: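 Nanobodies from a synthetic yeast display library (Saccharomyces cerevisiae BJ5465), induced 36–48 hours with galactose, were stained 1 hour at 4 °C with 10% biotinylated, detergent-solubilized Sf9 membrane reagent, enriched on streptavidin microbeads, then FACS-sorted. Anti-HA (expression) and streptavidin (reagent binding) fluorescence set low and high (top ~1%) gates. Polyreactivity labels come from the gate of origin. Genes were colony-PCR amplified, MiSeq 2 × 250 sequenced and filtered by CDR length.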
In the case of “QVQLVESGGGLVQAGGSLRVSCAASGRIFVDYAMGWYRQAPGKERELVAAISRRGGSTYYADSVKGRFTISRDNAKNTVYLQMNSLKPEDTAVYYCNALVNSGGGYGATEYDYWGQGTQVTVSS”, the “polyreactivity (PSR sort gate)” value is reported as “high polyreactivity”. Regarding “QVQLVESGGGLVQAGGSLRVSCAASGRILPFYAMGWYRQAPGKERELVATISWTSDSTYYADSVKGRFTISRDNAKNTVSLQMNSLKPEDTAVYYCAREYTYTYASTVIYDHWGQGTQVTVSS”, the “polyreactivity (PSR sort gate)” value is given as “low polyreactivity”.

Consider “QVQLVESGGGLVQAGGSLRVSCAASGRSFWTDTMGWYRQAPGKEREFVAAITFGDGSTSYADSVKGRFTISRDNAKNTVYLQMNSLKPEDTAVYYCAKRWRRRFVDVWSLYDYWGQGTQVTVSS”, for which the “polyreactivity (PSR sort gate)” value is “low polyreactivity”. On to “QVQLVESGGGLVQAGGSLRVSCAASGRTCRYYAMGWYRQEHGTEREWVAVISWSGGTTRYADSVKGRFTISRDNAKNTVYIQMNSLKPEDTAVYYCAARVSVWYNYWGQGTQVTVSS”, for which the “polyreactivity (PSR sort gate)” value is “high polyreactivity”. Turning to “QVQLVESGGGLVQAGGSLRVSCAASGRTFARYALAWYRQAPGKERELVAAISRGGTTNYADSVKGRFTISRDNAKNTVYLQMNSLKPEDTAVDYCNRDFHLSHLSSARLDYWGQGTQVTVSS”, the “polyreactivity (PSR sort gate)” value is on record as “low polyreactivity”. On to “QVQLVESGGGLVQAGGSLRVSCAASGRTFGRYAMGWYRQATGKERELVAAISYSGGSTYYADSVKGRFTISRDNAKNNVYLQMNSLKPEDTAVYYCAAYYSGKDGYWGQGTQVTVSS”, for which the “polyreactivity (PSR sort gate)” value is given as “high polyreactivity”. “QVQLVESGGGLVQAGGSLRVSCAASGRTFWTNAMGWYRQAPGKEREILAAISWRGASTFYADSVKGRFTISRDNAKNTVYLQMNSLKPEDTAVYYCAAQSRTRSFYGKYDSWGQGTQVTVSS”: the “polyreactivity (PSR sort gate)” value is “low polyreactivity”. As for “QVQLVESGGGLVQAGGSLRVSCAASGSIFIRYAMGWYRQAPGKERELVAAIRSSGGSTYADSVKGRFTISRDNAKNTVYLQMISLKPEDTAVYYCAAGRSSKNSYSYPYYYWGQGTQVTVSS”, the entry is “high polyreactivity”; as for “QVQLVESGGGLVQAGGSLRVSCAASGSIFSYYAMGWYRQAPGKEREFVAAISWSGGSTYYADSVKGRFTISRDNAKNTVYLQMNSLKPEDTAVYYCAAELSLSWLVPDVPYYYWGQGTQVTVSS”, “low polyreactivity”. As for “QVQLVESGGGLVQAGGSLRVSCAASGSIFYGNAMGWYRQAPGKARELVAAISNVGRTDYADSVKGRFTISRDNAKPTVYLQMNSLKPEDTADYSCAAGVYSGSNRYYAPRSWFGYYYWGQGTQVTVSS”, the entry is “low polyreactivity”; as for “QVQLVESGGGLVQAGGSLRVSCAASGSIFYSNAMGWYRQAPGKERELVAAITRRGGSTYYADSVKGRFTISRDIATNPVYLQMNSLIPEDTAVYYCAARSKTSNLFNYWGQGTQVTVSS”, “high polyreactivity”; as for “QVQLVESGGGLVQAGGSLRVSCAASGSNFPRYAMGWYRQAPGKERELVAAISGRGGSTYYADSVKGRFTISRDNAKNTVYLQMNSLKPEDTAVYYCNAVGHTSIRRALDILDYWGQGTQVTVSS”, “high polyreactivity”. Turning to “QVQLVESGGGLVQAGGSLRVSCAASGSTFLVYARGWYRQAPGKERELVAAISWSGGSTYYADSVKGRFTISRDNAKKTVYLQMNSLKPEDTAVYYCNAEGIYRQPRGYVYRYDYWGQGTQVTVSS”, the “polyreactivity (PSR sort gate)” value is “high polyreactivity”.

On to “QVQLVESGGGLVQAGGSLRVSCAASGSTFRKYAMGWYRQAPGKEREFVAAITSSGGSTYYADSVKGRFTISRDNAKNTLYLQMNSLKPEDTAVYYCAARGDSVSTAYNYWGQGTQVTVSS”, for which the “polyreactivity (PSR sort gate)” value was “high polyreactivity”.

On to “QVQLVESGGGLVQAGGSLRVSCAASGSTFSQYAMGLYRQAPGKEREFVAVITLSVVSTSYADSVKGRFTFSRDNAKNTVYLQMNSQKPEDTAVYYCNKDSGVRGPGYGYWGQGTQVTVSS”, for which the “polyreactivity (PSR sort gate)” value is “low polyreactivity”. As to “QVQLVESGGGLVQAGGSLRVSCAASGSTFSYNAMGWYRQAPGKERELVASINSRGGTTYYADTVKVRFTISRDNAKNTVYLQMKSLKPEDTAVYYCATDVYRLGEYDYWGQGTQVTVSS”, the “polyreactivity (PSR sort gate)” value is recorded as “low polyreactivity”. Take “QVQLVESGGGLVQAGGSLRVSCAASGSTFTAYAMGWYRQAPGKERELVAAINWSGGTTYYADSVKGRFTISRDNAKNTVYLQMNSLKPEDTAVYYCAVDGNFFGEVRPYDYWGQGTQVTVSS”: the “polyreactivity (PSR sort gate)” value was “low polyreactivity”. With “QVQLVESGGGLVQAGGSLRVSCAASGSTFTGYAMGWYRQAPGKERELVAAISRGGSTNYADSVKGRFTISRDNAKNTVYLQMNSLKPEDTAVYYCAAETYYFGYGYWGQGTQVTVSS”, the “polyreactivity (PSR sort gate)” value is given as “high polyreactivity”. For the sequence “QVQLVESGGGLVQAGGSLRVSCAASGSTFTNYAMGVYRQAPRKERELIARITYNVGRTYYADSVKGRFTISRDNAKNTVYLQMNSLKPEDTAVYYCAAGVGWRYRVRWYYYLGDYWGQVTQVTVSS”, the “polyreactivity (PSR sort gate)” value is recorded as “high polyreactivity”. As for “QVQLVESGGGLVQAGGSLRVSCAASGSTFYYNAMGWYRQATGKERELVAAITRSAGSTYYADSVKGRFTISRDNAKNTVYLQMNSLKPEDTAVYYCNARYSFYGSYWTSGKYDYWGQGTQVTVSS”, the “polyreactivity (PSR sort gate)” value is “high polyreactivity”. In the case of “QVQLVESGGGLVQAGGSLRVSCAASGSTLGRNTMGWYRQAPGKVRELVAAITITDSTNYADSVKGRFTISRDNAKNTVYLQMNSLKPEDTAVYYGAKRRYYSTPRWGSSTYDYWGLGTQVTVSS”, the “polyreactivity (PSR sort gate)” value is listed as “low polyreactivity”.

Take “QVQLVESGGGLVQAGGSLRVSCAASGSTLVFNAMGWYRQAPGKEREIVAAISKSGGSRYYADSVKGRFTISRDNAKNTVYLQMNSLKPEDTAVYYCAPDSGGPGYAMDYWGQGTQVTVSS”: the “polyreactivity (PSR sort gate)” value is on record as “high polyreactivity”.

For the sequence “QVQLVESGGGLVQAGGSLRVSCAASGYIFTPYAMGWYRQAPGKERELVAAISSSTVRTFYADSVKGRFTISRDNAKNTVYLQMNSLKPEDTAVYYCAARGYWGQGTQVTVSS”, the “polyreactivity (PSR sort gate)” value is recorded as “high polyreactivity”. On to “QVQLVESGGGLVQAGGSLRVTCAASGRIFQRYVMGWYRQAPGKERELVAAITWSGGSTYADSVKGRFTISRDNAKNTVYLQMNSLKTEDTAVYYFAARVPYNYWGMYYLYDYWGQGTQVTVSS”, for which the “polyreactivity (PSR sort gate)” value is on record as “high polyreactivity”. On to “QVQLVESGGGLVQAGGSLRYICAASGFTFRPKVMGWYRQAHGKERELVAAISGSGGSTYYADSVKGRFTISRDNAKNTVYLQMNSLKPEDTAVYYSKDFPAFYDFGYWGQGTQVTVSS”, for which the “polyreactivity (PSR sort gate)” value is reported as “high polyreactivity”. As for “QVQLVESGGGLVQAGGSLSISCAASGRTFPEYGMGWYRQAPGKDREFVAAISTRGGSTYYANSVKGRFTISGDNAKNTVYLQMNSLKPEDTAVYYCAKVYDRSGGDYWGQGTQVTVSS”, the entry is “low polyreactivity”. As for “QVQLVESGGGLVQAGGSLSLICAASGFTFLIYAMGWYRQAPGKERELVAAITWRGSGTYYADSVKGRFTISRDNAKNTVYLQMNSLKPEDTAVYYCAARTARRTYDYWGQGTQVTLSS”, the “polyreactivity (PSR sort gate)” value is “low polyreactivity”. On to “QVQLVESGGGLVQAGGSLSLICAASGRIFLRNDMGWYRQAPGKERELVAGISSDGSTYYADSVKGRFTISRDNAKNTVYLQMNSLKPEDTAVYYCAAERWGNPTDYQFWRPYDYWGQGTQVNVSS”, for which the “polyreactivity (PSR sort gate)” value is “low polyreactivity”. On to “QVQLVESGGGLVQAGGSLSLICAASGSTFTENAMGWYRQAPGKERELVAVITSSDGTTYYADSVKGRFTISRDNAKNTVYLQMISLKPEDTAVSYCAADPYYFWWRYDFWGQGTQVTVSS”, for which the “polyreactivity (PSR sort gate)” value is listed as “low polyreactivity”. As for “QVQLVESGGGLVQAGGSLSLRCAASGRTLDVYAMGWYRQAPGKERELVARITSGGSTNYADSVKGRFTISRDNAKNTVYLQMNSLKPEDTSVYYCNAVVYTRPYTRPRYRYDYWGQGTQVTVSS”, the entry is “high polyreactivity”.
